Experimental data published in patent US20040120923A1.

Tests used:
[1] = biological target: IL-18 (human) (UniProt Q14116); experiment: cell-based or functional assay
[2] = biological target: IL-18BP (human) (UniProt O95998); experiment: cell-based or functional assay
IL-18BP (human), sequence (O95998 31-194): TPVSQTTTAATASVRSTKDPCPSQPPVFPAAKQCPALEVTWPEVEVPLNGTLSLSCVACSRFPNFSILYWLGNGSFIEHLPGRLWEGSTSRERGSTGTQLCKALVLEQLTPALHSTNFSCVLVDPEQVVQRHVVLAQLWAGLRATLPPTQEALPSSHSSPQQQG

IL-18 (human), sequence (Q14116 37-193 limits assumed): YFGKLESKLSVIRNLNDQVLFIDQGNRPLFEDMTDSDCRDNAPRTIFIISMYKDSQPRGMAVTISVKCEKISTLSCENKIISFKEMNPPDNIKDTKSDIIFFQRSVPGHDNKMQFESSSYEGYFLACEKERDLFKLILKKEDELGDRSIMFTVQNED

activity of IL-18 (IFNγ release by NKO cells, % of IL-18 25 ng/ml plus IL-12 without IL-18BP or IL-1F7b) at 3.12 ng/ml of IL-18BP, without IL-1F7b [1] [%]	activity of IL-18 (IFNγ release by NKO cells, % of IL-18 25 ng/ml plus IL-12 without IL-18BP or IL-1F7b) at 6.25 ng/ml of IL-18BP, without IL-1F7b [1] [%]	activity of IL-18 (IFNγ release by NKO cells, %) at 3.12 ng/ml of IL-18BP with mature IL-1F7b 250 ng/ml [2] [%]	activity of IL-18 (IFNγ release by NKO cells, %) at 6.25 ng/ml of IL-18BP with mature IL-1F7b 250 ng/ml [2] [%]	further decrease in activity of IL-18 at 3.12 ng/ml of IL-18BP with mature IL-1F7b [2] [%]	further decrease in activity of IL-18 at 6.25 ng/ml of IL-18BP with mature IL-1F7b [2] [%]	Substance
59	76	–	–	–	–	IL-18BP (from UniProt O95998 31-194) (receptor)
–	–	40	55	19	21	mature IL-1F7b (N-terminus E21) (from UniProt Q9NZH6 21-218) (ligand)
